Results reported in article PMC8326396, “Label-free Electrochemical Impedance Spectroscopy Aptasensor for Ultrasensitive Detection of Lung Cancer Biomarker Carcinoembryonic Antigen”.

Target: carcinoembryonic antigen (CEA) (UniProt P06731 35-685)
Assay: electrochemical impedance spectroscopy; CEA 0.2-15.0 ng/ml linear range; LOD 0.085 ng/ml (not a Kd); CEA incubated on electrode 1 h at 37 C (70 min found optimal), wash with 0.01 M [Fe(CN)6] PBS pH 7.4; EIS in 5 mM [Fe(CN)6]3-/4-, 0.1 M PBS pH 7.0, KCl (0.1 M or 1 M, stated inconsistently)
Details: protein: commercial

carcinoembryonic antigen (CEA), sequence (P06731 35-685): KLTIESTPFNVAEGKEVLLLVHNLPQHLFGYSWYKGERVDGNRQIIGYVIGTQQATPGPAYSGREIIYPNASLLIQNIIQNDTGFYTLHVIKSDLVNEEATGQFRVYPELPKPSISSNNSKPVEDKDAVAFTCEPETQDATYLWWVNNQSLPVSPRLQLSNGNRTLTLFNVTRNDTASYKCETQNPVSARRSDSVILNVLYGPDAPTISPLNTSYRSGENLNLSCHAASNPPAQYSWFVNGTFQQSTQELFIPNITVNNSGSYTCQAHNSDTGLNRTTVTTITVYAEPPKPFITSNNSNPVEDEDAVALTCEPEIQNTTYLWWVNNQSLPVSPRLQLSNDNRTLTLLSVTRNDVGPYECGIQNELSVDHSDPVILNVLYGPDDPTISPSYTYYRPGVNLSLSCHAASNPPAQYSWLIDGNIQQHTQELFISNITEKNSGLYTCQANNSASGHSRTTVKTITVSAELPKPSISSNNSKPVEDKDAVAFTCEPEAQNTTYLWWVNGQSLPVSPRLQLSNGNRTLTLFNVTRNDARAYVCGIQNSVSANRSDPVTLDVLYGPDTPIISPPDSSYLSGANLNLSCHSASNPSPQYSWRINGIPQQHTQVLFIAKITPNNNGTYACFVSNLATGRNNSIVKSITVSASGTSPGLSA

B1: CEA aptamer (CEA-A) (ssDNA)
DNA: ATACCAGCTTATTCAATT
modifications: 5'-SH (thiol)
- binding result: binds
